Here are results for four molecules from patent JP2014141434A (dated 2014).

Holding throughout (experiment): flow cytometry, transfected HEK293 cells
In general terms: In flow cytometry, cells or beads pass a laser one at a time.

Test [1] addresses T1, ラットROBO4 (pCI−raROBO4導入細胞) (rat, UniProt Q80W87 38-949 at identity 0.93)).
T1 construct: also called rat ROBO4; raROBO4
T1 chain: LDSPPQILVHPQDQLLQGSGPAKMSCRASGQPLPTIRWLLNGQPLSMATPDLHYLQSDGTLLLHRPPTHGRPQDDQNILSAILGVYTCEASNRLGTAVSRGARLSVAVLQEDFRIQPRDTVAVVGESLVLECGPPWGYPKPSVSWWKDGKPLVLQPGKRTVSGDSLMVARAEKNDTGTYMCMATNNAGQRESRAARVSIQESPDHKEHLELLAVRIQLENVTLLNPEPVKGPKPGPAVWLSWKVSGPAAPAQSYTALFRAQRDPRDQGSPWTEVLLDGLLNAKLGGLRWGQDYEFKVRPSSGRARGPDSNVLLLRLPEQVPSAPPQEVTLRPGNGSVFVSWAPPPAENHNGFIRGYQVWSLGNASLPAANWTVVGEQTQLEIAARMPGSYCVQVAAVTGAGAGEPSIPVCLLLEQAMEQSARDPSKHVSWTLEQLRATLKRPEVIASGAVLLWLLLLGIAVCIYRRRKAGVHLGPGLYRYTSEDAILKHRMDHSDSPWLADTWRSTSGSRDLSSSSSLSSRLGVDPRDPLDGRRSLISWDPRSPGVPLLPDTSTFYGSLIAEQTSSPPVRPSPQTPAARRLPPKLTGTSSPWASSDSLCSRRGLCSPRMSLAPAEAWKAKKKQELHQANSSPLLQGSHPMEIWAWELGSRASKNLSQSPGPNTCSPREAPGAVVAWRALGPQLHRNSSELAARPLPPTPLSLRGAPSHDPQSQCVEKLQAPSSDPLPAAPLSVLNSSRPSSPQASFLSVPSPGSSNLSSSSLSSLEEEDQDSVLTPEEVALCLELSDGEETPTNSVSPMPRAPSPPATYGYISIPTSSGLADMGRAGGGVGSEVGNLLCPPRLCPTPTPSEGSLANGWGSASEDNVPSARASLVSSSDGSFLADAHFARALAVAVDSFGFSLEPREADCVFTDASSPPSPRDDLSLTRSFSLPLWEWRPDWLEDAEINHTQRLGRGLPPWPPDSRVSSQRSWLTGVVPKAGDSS

Test [2] has as its target T2, N末端FLAG−tag付加型カニクイザルROBO4 cynoROBO4−1 (cynomolgus monkey, UniProt Q8WZ75 28-1007 (human entry)).
T2 construct: also called pCI−FLAG−cynoROBO4−1
T2 chain: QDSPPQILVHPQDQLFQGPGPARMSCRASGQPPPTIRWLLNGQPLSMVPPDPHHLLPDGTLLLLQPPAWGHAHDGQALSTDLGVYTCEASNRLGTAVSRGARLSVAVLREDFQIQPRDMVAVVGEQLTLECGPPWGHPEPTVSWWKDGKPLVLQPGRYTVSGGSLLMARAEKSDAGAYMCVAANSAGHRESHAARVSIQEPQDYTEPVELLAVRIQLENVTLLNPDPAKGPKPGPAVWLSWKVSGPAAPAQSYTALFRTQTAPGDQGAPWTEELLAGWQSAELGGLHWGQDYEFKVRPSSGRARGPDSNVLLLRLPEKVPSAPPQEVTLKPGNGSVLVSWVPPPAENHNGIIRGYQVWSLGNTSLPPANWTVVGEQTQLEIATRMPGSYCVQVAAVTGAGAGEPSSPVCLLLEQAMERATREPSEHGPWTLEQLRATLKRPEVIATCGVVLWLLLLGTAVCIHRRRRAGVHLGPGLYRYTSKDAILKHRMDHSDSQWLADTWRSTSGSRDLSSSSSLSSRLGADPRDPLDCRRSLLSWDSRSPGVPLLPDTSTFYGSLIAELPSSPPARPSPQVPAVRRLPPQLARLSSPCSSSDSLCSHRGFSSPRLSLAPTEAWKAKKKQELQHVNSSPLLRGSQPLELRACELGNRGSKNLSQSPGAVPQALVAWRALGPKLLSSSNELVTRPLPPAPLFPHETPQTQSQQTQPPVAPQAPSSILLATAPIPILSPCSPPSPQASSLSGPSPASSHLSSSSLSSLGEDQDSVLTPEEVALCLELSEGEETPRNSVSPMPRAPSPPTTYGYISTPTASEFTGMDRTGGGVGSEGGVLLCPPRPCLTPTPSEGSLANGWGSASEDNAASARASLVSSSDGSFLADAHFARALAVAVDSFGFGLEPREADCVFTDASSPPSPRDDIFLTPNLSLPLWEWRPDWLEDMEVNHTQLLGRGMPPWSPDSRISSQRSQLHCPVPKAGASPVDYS

The target in test [3] is T3, N末端FLAG−tag付加型カニクイザルROBO4 cynoROBO4−2 (cynomolgus monkey, UniProt Q8WZ75 28-1007 (human entry)).
T3 construct: also called pCI−FLAG−cynoROBO4−2
T3 chain: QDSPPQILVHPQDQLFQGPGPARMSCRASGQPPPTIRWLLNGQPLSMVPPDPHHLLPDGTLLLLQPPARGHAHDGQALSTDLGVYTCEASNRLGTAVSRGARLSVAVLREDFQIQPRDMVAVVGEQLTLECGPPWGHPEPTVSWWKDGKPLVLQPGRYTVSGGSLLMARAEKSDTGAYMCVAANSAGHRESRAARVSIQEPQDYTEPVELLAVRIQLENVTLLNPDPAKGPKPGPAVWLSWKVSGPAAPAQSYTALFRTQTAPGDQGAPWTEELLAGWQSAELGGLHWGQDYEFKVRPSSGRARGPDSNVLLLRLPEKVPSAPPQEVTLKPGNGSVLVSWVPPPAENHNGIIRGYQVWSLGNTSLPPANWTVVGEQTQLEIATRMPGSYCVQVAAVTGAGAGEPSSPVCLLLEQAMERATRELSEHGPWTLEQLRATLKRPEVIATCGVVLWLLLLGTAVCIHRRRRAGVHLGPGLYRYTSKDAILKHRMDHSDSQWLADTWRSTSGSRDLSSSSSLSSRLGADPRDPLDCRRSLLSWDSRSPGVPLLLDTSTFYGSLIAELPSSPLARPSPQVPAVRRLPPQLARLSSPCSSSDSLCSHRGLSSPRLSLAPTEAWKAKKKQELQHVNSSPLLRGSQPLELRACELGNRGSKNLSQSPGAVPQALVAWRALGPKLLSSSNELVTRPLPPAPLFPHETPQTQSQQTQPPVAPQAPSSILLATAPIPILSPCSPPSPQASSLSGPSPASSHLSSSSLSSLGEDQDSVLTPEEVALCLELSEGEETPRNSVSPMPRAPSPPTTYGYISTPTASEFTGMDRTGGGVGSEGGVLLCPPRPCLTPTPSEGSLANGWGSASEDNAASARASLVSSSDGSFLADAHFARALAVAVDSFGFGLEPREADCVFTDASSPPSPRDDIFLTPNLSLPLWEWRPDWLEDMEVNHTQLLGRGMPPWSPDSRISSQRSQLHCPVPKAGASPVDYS

B1: ヒト化MAb1抗体 H−2143 (antibody, human IgG2, kappa, V domains shown)
VH: EVQLVESGGGLVQPGGSLRLSCAASGFTFSTYAMSWVRQAPGKRLEWVATISQGGTYTYYPDSVKGRFTISRDNAKNTLYLQMNSLRAEDTAVYYCARLIYYDYLDYWGQGTLVTVSS
VL: DIVMTQSPLSLPVTLGEPASISCRSSQSLENENKNLYLNWYLQKPGQSPQLLIYRVSNRFSGVPDRFSGSGSGTDFTLKISRVEAEDVGVYYCLQVTHVPWTFGPGTKVDIKR
notes: Humanised IgG2 / kappa; also called H-2143; hMAb1-H4 / hMAb1-L2
With B1, the binding result was “no binding (tested: 10 μg/mL (method of 4)-3-2))” in test [1], “binds” in test [2] and “binds” in test [3].

B2: ヒト化MAb1抗体 H−1143 (antibody, human IgG2, kappa, V domains shown)
VH: EVQLVESGGGLVQPGGSLRLSCAASGFTFSTYAMSWVRQAPGKGLEWVATISQGGTYTYYPDSVKGRFTISRDNAKNTLYLQMNSLRAEDTAVYYCARLIYYDYLDYWGQGTLVTVSS
VL: DIVMTQSPLSLPVTLGEPASISCRSSQSLENENKNLYLNWYLQKPGQSPQLLIYRVSNRFSGVPDRFSGSGSGTDFTLKISRVEAEDVGVYYCLQVTHVPWTFGPGTKVDIKR
notes: Humanised IgG2 / kappa; also called H-1143; hMAb1-H2 / hMAb1-L2
In the case of B2, the binding result in test [1] is recorded as “no binding (tested: 10 μg/mL (method of 4)-3-2))”; in test [2], “binds”; in test [3] it was “binds”.

B3: ヒト化MAb1抗体 H−2140 (antibody, human IgG2, kappa, V domains shown)
VH: EVQLVESGGGLVQPGGSLRLSCAASGFTFSTYAMSWVRQAPGKRLEWVATISQGGTYTYYPDSVKGRFTISRDNAKNTLYLQMNSLRAEDTAVYYCARLIYYDYLDYWGQGTLVTVSS
VL: DIVMTQSPLSLPVTLGEPASISCRSSQSLENSNGNTYLNWYLQKPGQSPQLLIYRVSNRFSGVPDRFSGSGSGTDFTLKISRVEAEDVGVYYCLQVTHVPWTFGPGTKVDIKR
notes: Humanised IgG2 / kappa; also called H-2140; hMAb1-H4 / hMAb1-L1
On to B3, for which the binding result in test [1] is on record as “no binding (tested: 10 μg/mL (method of 4)-3-2))”; in test [2] it was “binds”; in test [3], “binds”.

B4: 抗ROBO4マウスモノクローナル抗体 MAb1 (antibody, V domains shown)
VH: EVQLVESGGGLVKPGGSLKLSCAASGFTFSTYAMSWVRQTPEKRLEWVATISNGGTYTYYPDSVKGRFTISRDNAENTLYLQMSSLRSEDTAMYFCARLIYYDYLDYWGHGTTLTVSS
VL: DAVMTQTPLSLPVSLGDQASISCRSSQSLENSNGNTYLNWYFQKPGQSPQLLIYRVSNRFSGVLDRFSGSGSGTDFTLKISRVEAEDFGVYFCLQVTHVPWTFGGGTKLEIKR
notes: Mouse IgG1 (gamma 1) / kappa from a hybridoma; The constant regions are not in the listing; also called MAb1
Consider B4, for which, in test [1], the binding result is “no binding (tested: 10 μg/mL)”.
